In IntAct's records for PubMed 20531387:

B1: Centrosomal P4.1-associated protein (Homo sapiens), Q9HC77 (parent)
chain: MFLMPTSSELNSGQNFLTQWMTNPSRAGVILNRGFPILEADKEKRAAVDISTSFPIKGTHFSDSFSFINEEDSLLEEQKLESNNPYKPQSDKSETHTAFPCIKKGPQVAACHSAPGHQEENKNDFIPDLASEFKEGAYKDPLFKKLEQLKEVQQKKQEQLKRQQLEQLQRLMEEQEKLLTMVSGQCTLPGLSLLPDDQSQKHRSPGNTTTGERATCCFPSYVYPDPTQEETYPSNILSHEQSNFCRTAHGDFVLTSKRASPNLFSEAQYQEAPVEKNNLKEENRNHPTGESILCWEKVTEQIQEANDKNLQKHDDSSEVANIEERPIKAAIGERKQTFEDYLEEQIQLEEQELKQKQLKEAEGPLPIKAKPKQPFLKRGEGLARFTNAKSKFQKGKESKLVTNQSTSEDQPLFKMDRQQLQRKTALKNKELCADNPILKKDSKARTKSGSVTLSQKPKMLKCSNRKSLSPSGLKIQTGKKCDGQFRDQIKFENKVTSNNKENVTECPKPCDTGCTGWNKTQGKDRLPLSTGPASRLAAKSPIRETMKESESSLDVSLQKKLETWEREKEKENLELDEFLFLEQAADEISFSSNSSFVLKILERDQQICKGHRMSSTPVKAVPQKTNPADPISHCNRSEDLDHTAREKESECEVAPKQLHSLSSADELREQPCKIRKAVQKSTSENQTEWNARDDEGVPNSDSSTDSEEQLDVTIKPSTEDRERGISSREDSPQVCDDKGPFKDTRTQEDKRRDVDLDLSDKDYSSDESIMESIKHKVSEPSRSSSLSLSKMDFDDERTWTDLEENLCNHDVVLGNESTYGTPQTCYPNNEIGILDKTIKRKIAPVKRGEDLSKSRRSRSPPTSELMMKFFPSLKPKPKSDSHLGNELKLNISQDQPPGDNARSQVLREKIIELETEIEKFKAENASLAKLRIERESALEKLRKEIADFEQQKAKELARIEEFKKEEMRKLQKERKVFEKYTTAARTFPDKKEREEIQTLKQQIADLREDLKRKETKWSSTHSRLRSQIQMLVRENTDLREEIKVMERFRLDAWKRAEAIESSLEVEKKDKLANTSVRFQNSQISSGTQVEKYKKNYLPMQGNPPRRSKSAPPRDLGNLDKGQAASPREPLEPLNFPDPEYKEEEEDQDIQGEISHPDGKVEKVYKNGCRVILFPNGTRKEVSADGKTITVTFFNGDVKQVMPDQRVIYYYAAAQTTHTTYPEGLEVLHFSSGQIEKHYPDGRKEITFPDQTVKNLFPDGQEESIFPDGTIVRVQRDGNKLIEFNNGQRELHTAQFKRREYPDGTVKTVYANGHQETKYRSGRIRVKDKEGNVLMDTEL
partner: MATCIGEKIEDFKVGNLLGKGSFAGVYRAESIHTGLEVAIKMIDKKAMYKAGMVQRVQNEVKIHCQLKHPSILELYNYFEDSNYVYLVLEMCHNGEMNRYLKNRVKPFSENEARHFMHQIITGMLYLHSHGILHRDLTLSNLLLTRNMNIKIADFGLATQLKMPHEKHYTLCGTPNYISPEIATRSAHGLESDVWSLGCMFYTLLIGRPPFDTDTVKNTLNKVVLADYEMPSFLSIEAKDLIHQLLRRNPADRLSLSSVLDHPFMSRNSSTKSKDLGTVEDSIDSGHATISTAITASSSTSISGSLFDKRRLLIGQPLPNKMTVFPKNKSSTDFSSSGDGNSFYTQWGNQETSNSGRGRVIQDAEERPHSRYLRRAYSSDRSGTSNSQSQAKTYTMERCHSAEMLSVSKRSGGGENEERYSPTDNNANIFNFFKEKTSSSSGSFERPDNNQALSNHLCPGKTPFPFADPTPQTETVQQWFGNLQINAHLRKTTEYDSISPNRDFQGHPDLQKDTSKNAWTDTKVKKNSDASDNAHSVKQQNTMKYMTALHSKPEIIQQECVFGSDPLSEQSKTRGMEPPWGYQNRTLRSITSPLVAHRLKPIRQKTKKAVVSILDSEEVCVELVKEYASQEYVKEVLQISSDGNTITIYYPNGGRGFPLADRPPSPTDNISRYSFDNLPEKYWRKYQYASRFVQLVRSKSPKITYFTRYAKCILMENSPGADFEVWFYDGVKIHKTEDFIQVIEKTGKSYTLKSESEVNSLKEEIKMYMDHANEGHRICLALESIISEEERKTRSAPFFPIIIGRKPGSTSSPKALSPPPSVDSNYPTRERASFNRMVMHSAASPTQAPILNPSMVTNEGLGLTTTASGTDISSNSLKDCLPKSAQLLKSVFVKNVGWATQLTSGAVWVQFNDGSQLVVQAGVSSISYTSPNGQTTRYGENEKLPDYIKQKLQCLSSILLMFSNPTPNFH
B2: Centrosomal P4.1-associated protein (Homo sapiens), Q9HC77 (parent)
chain: B1 chain

Variants of: B1
Conditions: with plk4_human PLK4, O00444

| Variant | effect of a mutation on the interaction |
| --- | --- |
| S595A | disrupting interaction |
| S589A | disrupting interaction |

Variants of: B2
Conditions: with plk2_human PLK2, Q9NYY3
Chain of plk2_human PLK2, Q9NYY3 (Q9NYY3 whole entry, looked up): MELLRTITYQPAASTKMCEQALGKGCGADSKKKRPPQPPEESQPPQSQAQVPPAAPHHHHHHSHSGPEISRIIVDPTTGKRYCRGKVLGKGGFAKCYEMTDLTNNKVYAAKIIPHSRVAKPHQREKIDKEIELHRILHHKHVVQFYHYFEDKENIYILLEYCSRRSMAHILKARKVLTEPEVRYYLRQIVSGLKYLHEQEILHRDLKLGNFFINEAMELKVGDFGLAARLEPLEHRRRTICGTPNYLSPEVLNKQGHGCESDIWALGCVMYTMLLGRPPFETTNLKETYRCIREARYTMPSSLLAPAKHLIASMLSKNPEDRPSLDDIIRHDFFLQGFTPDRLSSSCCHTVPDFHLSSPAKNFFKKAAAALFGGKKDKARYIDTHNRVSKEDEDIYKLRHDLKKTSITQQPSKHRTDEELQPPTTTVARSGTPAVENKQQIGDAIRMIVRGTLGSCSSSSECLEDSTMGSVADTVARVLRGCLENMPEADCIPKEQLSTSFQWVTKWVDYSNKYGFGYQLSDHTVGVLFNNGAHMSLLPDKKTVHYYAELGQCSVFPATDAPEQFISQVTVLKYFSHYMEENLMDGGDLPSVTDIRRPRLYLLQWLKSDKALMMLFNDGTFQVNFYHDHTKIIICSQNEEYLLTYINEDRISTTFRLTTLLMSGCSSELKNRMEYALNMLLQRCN

| Variant | effect of a mutation on the interaction |
| --- | --- |
| S595A | decreasing interaction |

Variants of: B2
Conditions: with plk2_human PLK2, Q9NYY3
Remark: another data set of the same source

| Variant | effect of a mutation on the interaction |
| --- | --- |
| S595A | disrupting interaction |
| S589A | disrupting interaction |

Variants of: B2
Conditions: with plk2_human PLK2, Q9NYY3
Remark: another data set of the same source

| Variant | effect of a mutation on the interaction |
| --- | --- |
| S589A | decreasing interaction |
